Reference: US20230203197

Target: alpha 1 antitrypsin (α1AT), P01009
Sequence (P01009 whole entry, looked up): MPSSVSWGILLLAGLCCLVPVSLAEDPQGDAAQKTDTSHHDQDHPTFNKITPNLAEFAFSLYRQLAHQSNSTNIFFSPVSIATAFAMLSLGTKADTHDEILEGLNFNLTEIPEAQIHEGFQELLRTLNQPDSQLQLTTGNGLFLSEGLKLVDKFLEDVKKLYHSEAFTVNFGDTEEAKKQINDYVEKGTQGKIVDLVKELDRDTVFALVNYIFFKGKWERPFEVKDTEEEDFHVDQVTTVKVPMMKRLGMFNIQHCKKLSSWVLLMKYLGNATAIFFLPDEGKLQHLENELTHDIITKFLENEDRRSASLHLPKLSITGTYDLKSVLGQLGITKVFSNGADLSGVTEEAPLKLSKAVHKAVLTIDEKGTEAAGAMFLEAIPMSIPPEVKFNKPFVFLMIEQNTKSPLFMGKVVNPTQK

B1: neutrophil proteinase 3 (PR3), purified native human PR3 (protein)
chain: IVGGHEAQPHSRPYMASLQMRGNPGSHFCGGTLIHPSFVLTAAHCLRDIPQRLVNVVLGAHNVRTQEPTQQHFSVAQVFLNNYDAENKLNDVLLIQLSSPANLSASVATVQLPQQDQPVPHGTQCLAMGWGRVGAHDPPAQVLQELNVTVVTFFCRPHNICTFVPRRKAGICFGDSGGPLICDGIIQGIDSFVIWGCATRLFPDFFTRVALYVDWIRSTLR
enzymatic activity of PR3 (fluorescent substrate Abz-VADnVADYQ-YNO2): the addition of alpha 1 anti-trypsin (1AT) which is a natural PR3 inhibitor did not induce any degradation of the PR3 substrate
